Here are results for two molecules from patent publication CN113214399A (SHENZHEN INNOVA NANOBODI CO LTD, dated 2021).

Assay [1] addresses T1, 血清标本中的AFP抗原 (UniProt P02771 19-609).
T1 construct: AFP in serum samples, detected by the double-antibody sandwich assay; also called 质控血清AFP; 标准血清中的AFP
T1 sequence (looked up): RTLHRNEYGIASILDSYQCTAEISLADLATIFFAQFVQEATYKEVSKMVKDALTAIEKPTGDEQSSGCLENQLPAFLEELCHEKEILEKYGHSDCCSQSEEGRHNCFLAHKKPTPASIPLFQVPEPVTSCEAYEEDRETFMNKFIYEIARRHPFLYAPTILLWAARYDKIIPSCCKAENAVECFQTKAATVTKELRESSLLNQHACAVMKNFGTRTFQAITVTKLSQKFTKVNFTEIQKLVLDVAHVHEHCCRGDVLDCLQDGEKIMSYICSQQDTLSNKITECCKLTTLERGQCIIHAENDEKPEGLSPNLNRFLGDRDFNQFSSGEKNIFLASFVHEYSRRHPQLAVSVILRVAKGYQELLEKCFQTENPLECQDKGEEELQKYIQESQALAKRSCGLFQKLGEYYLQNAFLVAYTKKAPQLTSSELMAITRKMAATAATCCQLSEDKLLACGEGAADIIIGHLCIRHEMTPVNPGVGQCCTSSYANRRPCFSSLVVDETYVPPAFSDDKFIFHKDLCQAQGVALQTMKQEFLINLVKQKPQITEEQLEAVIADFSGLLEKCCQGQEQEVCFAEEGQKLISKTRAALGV
Put plainly: Double-antibody sandwich chemiluminescence immunoassay, detection antibody.

For assay [2], the target named is T2, 重组AFP抗原 (甲胎蛋白, α-fetoprotein) (UniProt P02771 19-609, limits assumed).
T2 construct: Bought recombinant antigen used to immunise the alpaca
T2 sequence (looked up): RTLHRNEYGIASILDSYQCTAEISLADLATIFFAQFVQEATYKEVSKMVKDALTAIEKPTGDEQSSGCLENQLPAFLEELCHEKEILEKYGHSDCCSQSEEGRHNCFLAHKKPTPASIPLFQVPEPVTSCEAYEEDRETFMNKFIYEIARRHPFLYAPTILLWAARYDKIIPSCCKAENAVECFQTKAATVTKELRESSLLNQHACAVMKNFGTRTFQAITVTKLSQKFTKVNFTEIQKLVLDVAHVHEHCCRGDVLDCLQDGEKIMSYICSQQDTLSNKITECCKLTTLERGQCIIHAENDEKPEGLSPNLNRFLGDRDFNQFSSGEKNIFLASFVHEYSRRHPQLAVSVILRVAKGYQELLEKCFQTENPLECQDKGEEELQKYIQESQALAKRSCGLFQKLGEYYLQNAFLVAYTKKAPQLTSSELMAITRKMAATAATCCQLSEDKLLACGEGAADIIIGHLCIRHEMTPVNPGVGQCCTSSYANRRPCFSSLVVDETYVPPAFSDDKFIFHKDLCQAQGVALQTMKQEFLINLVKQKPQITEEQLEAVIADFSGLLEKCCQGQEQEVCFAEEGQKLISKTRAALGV
The assay can be described thus: Biacore sequential injection on immobilised antigen. In general terms: In SPR one partner is held on a chip, and binding of the other changes the refractive index at the surface.

B1: 带有化学发光区序列的纳米抗体1C5-HAP (other)
chain: QVQLQESGGGLVQAGGSLRLSCKASERTFSSYSMAWYRQAPGKKREFVASISWDDERTYYTDSVKGRFTISRPNAKNTVYLQMNSLKPEDTAVYYCAVGGLSDGLGPSYDYWGQGTQVTVSSGGGGSGGGGSGGGGSIIPVEEENPDFWNREAAEALGAAKKLQPAQTAAKNLIIFLGDGMGVSTVTAARILKGQKKDKLGPEIPLAMDRFPYVALSKTYNVDKHVPDSGATATAYLCGVKGNFQTIGLSAAARFNQCNTTRGNEVISVMNRAKKAGKSVGVVTTTRVQHASPAGTYAHTVNRNWYSDADVPASARQEGCQDIATQLISNMDIDVILGGGRKYMFRMGTPDPEYPDDYSQGGTRLDGKNLVQEWLAKRQGARYVWNRTELMQASLDPSVTHLMGLFEPGDMKYEIHRDSTLDPSLMEMTEAALRLLSRNPRGFFLFVEGGRIDHGHHESRAYRALTETIMFDDAIERAGQLTSEEDTLSLVTADHSHVFSFGGYPLRGSSIFGLAPGKARDRKAYTVLLYGNGPGYVLKDGARPDVTESESGSPEYRQQSAVPLDEETHAGEDVAVFARGPQAHLVHGVQEQTFIAHVMAFAACLEPYTACDLAPPAGTTD
notes: Expressed in 293 cells
With B1, in assay [1], the binding result is reported as “binds”.

B2: 纳米抗体1C5 (VHH)
VHH: QVQLQESGGGLVQAGGSLRLSCKASERTFSSYSMAWYRQAPGKKREFVASISWDDERTYYTDSVKGRFTISRPNAKNTVYLQMNSLKPEDTAVYYCAVGGLSDGLGPSYDYWGQGTQVTVSS
As for B2, in assay [2], the binding result is “binds”.
